Results as given in the supplement of paper PMC9170038.

test system: MS2 coat protein; experiment: apparent KD of MS2 coat protein; higher = weaker reporter binding; conditions: Eterna round: R107; input ligand: theophylline 20 uM
Procedure, shortened: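 In 100 mM Tris-HCl pH 7.5 with 80 mM KCl and 4 mM MgCl2, and without or with constant ligand, SNAP-549-labelled MS2 coat protein was titrated in twofold steps from 0.7 or 1.5 nM to 3 µM. Per-step times went from 0.8–1.5 h down to 10–20 min. The RNA switches were transcribed on-chip from Illumina sequencing clusters, and apparent KD is the per-design median of normalised cluster binding-curve fits.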

Sequence	apparent KD of MS2 coat protein
AAGGUAUCACAGACAUGGGUGUACUGUGAUACCAGCUAGGAAACUAGCCCUUGGCAGCACAUGAGGAUCACCCAUGUAAGAAUAA [(T)'-(M)'-(T1)-(T2)-(M1)-(M2)_Design4_2/19/17]	94.9 nM
GGGCAAGGUGCCGCCUUCGCCCACUGAGAAGGAGCGCAGGGUACUGCAGGUAGGUCGCUCAGACAUGAGGAUCACCCAUGUAGGA [Esislees]	89.9 nM
GCCGCUGCCGCGGUGUGUGUGGGUGGGUGACGAGGACCGGUACGGCCGCCACUCGCGAUCGCACAUGAGGAUCACCCAUGUGUAA [Exclusion Tryp A GF20]	20.7 nM
AUAUUAAUCGGAAGGAGCGGUACAUGAGGAUCACCCAUGUGGUAAGCUAGCAGAUCCCGUUACCAGGUAGGUCGCCGAGUUAUGA [XArg-B17]	474 nM
AUGUGCAAUACGGAUACCAGCCCGUGUAGAUACAUGAGGAUCACCCAUGUCAAUGUAAAUGGCCCUUGGCAGCCGUUUGGGAGGC [theeternabot_sameState_MS2_Theo_B_35]	19.9 nM
CUCCUGGGAGCGGCCGCCACUGGAGGCCUUGCGCGACAUGAGGAUCACCCAUGUUGUCCCGGCCUCAGGACCGGGUUCGCGCGAG [Same State - Tryptophan B Attempt #1]	10.2 nM
GCAUGUUGGUGGUUUCUGCGAAGGCGGAAUCGAGGACCGGUACGGCCGCCACUCGGCGACAUGAGGAUCACCCAUGUGGUUAGGA [Exclusion - Tryptophan A (Freestyle 9)]	220 nM
CAGCACAUGAGGAUCACCCAUGUGAGGGAUACCAGCUCAGGCGUGGGCCCUUGGCAGCUCUGUGGCUGACGAAAGUCAGCCUCUG [#18 SameState-TheophyllineA]	17.7 nM
GCACAAGAUGGAAGGAGCGCUGGUAUAAGUCACAUGAGGAUCACCCAUGUGCUCCUUGCCGAGCAGGUAGGUCGCCAUCUUGUGC [SSAB NP+V+V2 #5]	71 nM
AUAAUGGGUAUCGGAUUAUCAUGGAAUGAUACCAGAUACUUAGAUAUCCCUUGGCAGCAUGAGGACAUGAGGAUCACCCAUGUAU [#03 Exclusion-TheophyllineA]	56.9 nM
CACUUCAUGUGAGAUACCAGUGCCUUACAUGAGGAUCACCCAUGUCGUAAUGUGGAGAAGCACCCUUGGCAGCUCGCUUCGAGUG [Theo B SS t6]	91.6 nM
GCAUCCUAGUCGGCCGCCACUGGGUGUACCCAGUGCUGGUACAAACAUGAGGAUCACCCAUGUACCAGGACCGGGACUAGGAUGC [(Trp1)-(MT2)''-(T1)'-(MT2)'-(Ms2)-(Trp2)_Design4]	21.2 nM
UGAUAUAGGGAGCCGUAUCAGAAACCUGAAGGAGCGCCGGAAAAGGCAGGUAGGUCGCGGGAACAUGAGGAUCACCCAUGUAUUC [dancer_small]	21.2 nM
AAUGGUCGUACUGGAAUGGUGAUCCUCAAACGAGGACCGGUACGGCCGCCACUCGAUAACAUGAGGAUCACCCAUGUAAUAAUAA [|T'-M'-Trp-Ms2|_Design13b]	67.4 nM
AGCACUGUGACGGCCGCCACUACAUAACAUGGGUGGUCAGGUUCAUUACAUGAGGAUCACCCAUGUAGGACCGGGUCUCAGUGCA [Omei Trp Exc B A v11]	17.7 nM
ACAUGAGGAUCACCCAUGUAAUACCGGGAAGGAGCGCGUAAGGACGCAGGUAGGUCGCUCGGCGUCCGGCCGCAAGGCCGGACGA [#1 Same State - Arginine A Attempt #12 (HarryS)]	24.3 nM
ACGGAUCGGAAACGAUCCGCGGCGCGGGUGCGAGGACCGGUACGGCCGCCACUCGGGUAACAUGAGGAUCACCCAUGUCCGAUUU [ETA NP+V+V2 #12]	101 nM
CAAUAAGUACCGGUCCUCAGAUCCUCAUGACGAGGACCGGUACGGCCGCCACUCGAAACAUGAGGAUCACCCAUGUAAUAAUAAU [Brourdmod01]	31.4 nM
AUGCAUGUCAGAAGGAGCGUCAGUAACAUGAGGAUCACCCAUGUAACAUUGAAUUCGAUGAGACAGGUAGGUCGCUGAAUAGUAA [JR_SSArginiB_Sub019]	37.7 nM

same assay, conditions: Eterna round: R107; input ligand: theophylline 2 mM

Sequence	apparent KD of MS2 coat protein
GGGUCGCGUUCGGCCGCCACUUGGAAACAUGAGGAUCACCCAUGUCAUAUGGUGGGACAUGUUGUAAGGACCGGGAACCGUCCUA [theeternabot_exclusion_MS2_Trp_B_11]	83.4 nM
CUAGAUGGAAACGUCUGGACGCACAAGCGACGAGGACCGGUACGGCCGCCACUCGAAGAGUGGUGGACAUGAGGAUCACCCAUGU [Design 4 MOD]	78 nM
GCAUCCUAGUCGGCCGCCACUGGUACGAAUACCUUCACCCGUGUGCACAUGAGGAUCACCCAUGUCAGGACCGGGACUAGGAUGC [SSTryp B #23]	9.91 nM
CCUAUCCAGUCGGCCGCCACUGAAAACAGUGGGUGAACAUGAGGAUCACCCAUGUAGGAUUUCCACAGGACCGGGACUGUAUAGG [Ex Tryptophan B 24]	1230 nM
AAUAAUAAGGCGGCCGCCACUAAACAUGAGGAUCACCCAUGUCUCGCGGGCUUGCGUUGGGAAAGUAGGACCGGGCCAAUAAUAA [Exclusion - Tryptophan B (Freestyle 8)]	14.7 nM
AUGUCGUUGAAUAUAGCGGCUUGGAGUGAUACCAGAAUGAUCCAAUUCCCUUGGCAGCAUUACAUGAGGAUCACCCAUGUUCCAG [SSTheo A #23]	89.6 nM
CUUAUAUAUAGAAGGAGCGACAUGAGGAUCACCCAUGUCUACCACGUCGAAAGACGCUCAUGUCAGGUAGGUCGCUAUAUAUAAG [Astros-Eli-mod3]	172 nM
AAUACCGGUCCUCGAAGCAUGGGUGAUCAACGAGGACCGGUACGGCCGCCACUCGAUAACAUGAGGAUCACCCAUGUAAUAAUAA [|T'-M'-Trp-Ms2|_Design5]	552 nM
UCGGGCAGAGCGGCCGCCACUGUAUGGCAUGCGGAUGAAGGAACAUGAGGAUCACCCAUGUAGAUUAGGACCGGGCUUGCGGAGA [p''pmullin]	17.7 nM
UAUAUAGAUGGACGUCAUCUAGAUGCAGAAGGAGCGUAGGAAACUACAGGUAGGUCGCUGAGGUACAUGAGGAUCACCCAUGUAG [SSArg A #21 Slice of Pi]	27 nM
GCAUCAUGAACGGCCGCCACUAAGGAAUGAGCGGCUCUUGCGAUACAUGAGGAUCACCCAUGUCUUAGGACCGGGUUCAUUGUCA [theeternabot_sameState_MS2_Trp_B_49]	322 nM
UGUAUUACGAAAGUAGUACAUCGUGUUCGACGAGGACCGGUACGGCCGCCACUCGGACAUGAGGAUCACCCAUGUAGCGAAAGCU [Tryptophan A 25]	491 nM
UUUUUUAACUGAAGGAGCGUCACAUGAGGAUCACCCAUGUAUUAGAUGAGAAUGAUCUUGUGGCAGGUAGGUCGCAGAGGAAGGG [#30 Exclusion - Arginine B]	271 nM
UGUAUGGACUGAAGGAGCGGGUUGAUAUCAUGAGGAUCACCCAUGGAAAAGGCGAAAGCCGCCCAGGUAGGUCGCAGUCCAUACU	37.5 nM
UUAUGCAGGUCGGCCGCCACUACACACAUGAGGAUCACCCAUGUAGUUACUGGGUGAAGUGGCAGUAGGACCGGGACCCGCACAC [Brourdmod22]	715 nM
GGGCAAGGUGCCGCCUUCGCCCACUGAGAAGGAGCGCAGGGUACUGCAGGUAGGUCGCUCAGACAUGAGGAUCACCCAUGUAGGA [Esislees]	76 nM
GCCGCUGCCGCGGUGUGUGUGGGUGGGUGACGAGGACCGGUACGGCCGCCACUCGCGAUCGCACAUGAGGAUCACCCAUGUGUAA [Exclusion Tryp A GF20]	19.6 nM
AUAUUAAUCGGAAGGAGCGGUACAUGAGGAUCACCCAUGUGGUAAGCUAGCAGAUCCCGUUACCAGGUAGGUCGCCGAGUUAUGA [XArg-B17]	510 nM
CUCCUGGGAGCGGCCGCCACUGGAGGCCUUGCGCGACAUGAGGAUCACCCAUGUUGUCCCGGCCUCAGGACCGGGUUCGCGCGAG [Same State - Tryptophan B Attempt #1]	9.71 nM
GCAUGUUGGUGGUUUCUGCGAAGGCGGAAUCGAGGACCGGUACGGCCGCCACUCGGCGACAUGAGGAUCACCCAUGUGGUUAGGA [Exclusion - Tryptophan A (Freestyle 9)]	461 nM
